T1: hiR2-FL-E557D-T7 (human, UniProt Q6PJF5 1-856)
T1 sequence: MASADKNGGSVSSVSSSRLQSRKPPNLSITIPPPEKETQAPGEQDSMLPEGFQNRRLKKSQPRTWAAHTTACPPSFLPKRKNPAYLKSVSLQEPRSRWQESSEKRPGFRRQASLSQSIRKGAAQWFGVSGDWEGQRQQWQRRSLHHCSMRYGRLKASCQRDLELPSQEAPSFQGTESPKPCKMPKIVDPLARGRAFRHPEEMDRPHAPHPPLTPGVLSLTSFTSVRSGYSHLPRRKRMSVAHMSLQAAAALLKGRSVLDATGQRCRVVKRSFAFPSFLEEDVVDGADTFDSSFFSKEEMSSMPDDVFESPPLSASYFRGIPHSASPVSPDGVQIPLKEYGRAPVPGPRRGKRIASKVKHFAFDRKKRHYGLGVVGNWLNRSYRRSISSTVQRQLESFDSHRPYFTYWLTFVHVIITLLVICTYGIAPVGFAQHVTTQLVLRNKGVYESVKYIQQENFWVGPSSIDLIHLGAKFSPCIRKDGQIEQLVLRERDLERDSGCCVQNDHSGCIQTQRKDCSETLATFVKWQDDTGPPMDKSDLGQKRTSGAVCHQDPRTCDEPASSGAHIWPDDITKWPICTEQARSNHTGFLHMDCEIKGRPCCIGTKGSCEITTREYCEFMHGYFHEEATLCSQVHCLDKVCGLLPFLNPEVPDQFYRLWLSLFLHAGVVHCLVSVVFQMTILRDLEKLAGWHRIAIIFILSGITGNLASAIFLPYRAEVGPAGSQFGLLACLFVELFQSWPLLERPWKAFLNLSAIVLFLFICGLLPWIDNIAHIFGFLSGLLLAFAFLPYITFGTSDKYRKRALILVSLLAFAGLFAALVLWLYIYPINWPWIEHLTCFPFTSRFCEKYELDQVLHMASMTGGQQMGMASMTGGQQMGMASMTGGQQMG


Target: T1, hiR2-FL-E557D-T7
Assay: FACS, MEF-DKO cells, 3 µg/ml
Text: In brief, immortalized MEF-DKO-hiR2-FL-G498A-T7, MEF-DKO-hiR2-FL-Q502R-T7, MEF-DKO-hiR2-FL-I509V-T7, MEF-DKO-hiR2-FL-Q512S-T7, MEF-DKO-hiR2-FL-R513E-T7, MEF-DKO-hiR2-FL-K514E-T7, MEF-DKO-hiR2-FL-D515E-T7, MEF-DKO-hiR2-FL-E518S-T7, MEF-DKO-hiR2-FL-T522V-T7, MEF-DKO-hiR2-FL-F523W-T7, MEF-DKO-hiR2-FL-Q527P-T7, MEF-DKO-hiR2-FL-D528I-T7, MEF-DKO-hiR2-FL-D529H-T7, MEF-DKO-hiR2-FL-T530P-T7, MEF-DKO-hiR2-FL-G531S-T7, MEF-DKO-hiR2-FL-P532A-T7, MEF-DKO-hiR2-FL-M534-T7, MEF-DKO-hiR2-FL-D535-T7, MEF-DKO-hiR2-FL-K536-T7, MEF-DKO-hiR2-FL-S537E-T7, MEF-DKO-hiR2-FL-D538L-T7, MEF-DKO-hiR2-FL-L539A-T7, MEF-DKO-hiR2-FL-Q541H-T7, MEF-DKO-hiR2-FL-T544Q-T7, MEF-DKO-hiR2-FL-S545F-T7, MEF-DKO-hiR2-FL-A547S-T7, MEF-DKO-hiR2-FL-T555V-T7, MEF-DKO-hiR2-FL-E557D-T7, MEF-DKO-hiR2-FL-A560S-T7 and MEF-DKO-hiR2-FL-S562E-T7 cells were harvested with 10 mM EDTA in PBS, washed and resuspended in FACS buffer (PBS, 3% FBS, 0.05% sodium azide), and seeded in Nunc U-bottom 96-well plates (Thermo Fisher Scientific, USA) at approximately 3×10⁵ cells per well. To pellet cells and remove supernatants, the plates were centrifuged at 1,500 rpm and 4° C. for 3 minutes. For primary staining, cells were resuspended in 100 μl per well of either FACS buffer alone (controls) or the purified antibodies 3, 5, 16, 22, 34, 42, 43, 44, 48, and 50 of the invention at 3 μg/ml in FACS buffer and incubated on ice for 1 hour. Afterwards, plates were centrifuged at 1,500 rpm and 4° C. for 3 minutes and washed twice with 200 μl per well of FACS buffer. For secondary staining, cells were spun down and resuspended in 100 μl per well of PE-conjugated goat anti-mouse IgG F(ab′)2 detection fragment (Dianova, Germany) diluted 1:100 in FACS buffer. Protected from light, the cell suspensions were incubated on ice for 1 hour. Plates were then centrifuged at 1,500 rpm and 4° C. for 3 minutes and washed three times with 200 μl per well of FACS buffer. Finally, cells were resuspended in 150 μl per well of FACS buffer and analyzed using a BD Accuri™ C6 Plus flow cytometer (Becton Dickinson, Germany).

Binder	loss of binding vs wild type
antibody 48 (antibody, V domains shown, mouse IgG, kappa light chain; also called clone #48; purified antibody 48) VH: QVQLQQSGTELVRPGTSVKVSCKASGYAFTNYLIEWVKQRPGQGLEWIGVINPGSGFTKYNEKFKGKATLTADKSSSTVYMHLSSLTSEDSAVYFCARGLYRAMDYWGQGTSVTVSS VL: DIQMTQSPASQSASLGESVTITCLASQTIATWLAWYQQKPGKSPQLLIYGATTLADGVPSRFSGGGSGTKFSFKISSLQAEDFVSYYCQQLYSTPYTFGGGTKLEIK	≥ 30%
antibody 50 (antibody, V domains shown, mouse IgG, kappa light chain; also called clone #50; purified antibody 50) VH: QVQLQQSGAELVRPGASVKVSCKASGYAFSNYLIEWVKQRPGQGLEWIGVINPGSGFTKYNEKFKGKATLTADKSSSTAYMQLSSLTSEDSAVYFCARGLYRAMDYWGQGTSVTVSS VL: DIQMTQSPASQSASLGESVTITCLASQTIGTWLAWYQQKPGKSPQLLIYAAASLADGVPSRFSGGGSGTKFSFKISSLQAEDFVNYYCQQIYSTPYTFGGGTKLEIK	≥ 30%
antibody 5 (antibody, V domains shown, mouse IgG, kappa light chain; also called clone #5; purified antibody 5) VH: QVTLKESGPGILQPSQTLSLTCSFSGFSLSTFGMGVGWIRQPSGKGLEWLAHIWWDDEKYYNSALKSRLTISKATSKNQAFLKIANVDTADTATYYCARISNYGSNYWYFNVWGTGTTVTVSS VL: QVVLTQSPALMSASPGEKVTMTCSAGSSVSCMYWYQQKPGSSPRVLIYDTSNLASGVPARFTGSGSGTSYSLTISRMEAEDAASYYCQQWNSYPLTFGAGTKLELK	≥ 60%
antibody 42 (antibody, V domains shown, mouse IgG, kappa light chain; also called clone #42; purified antibody 42) VH: QVTLKESGPGILQPSQTLSLTCSLSGFSLSTFGRGVGWIRQPSGKGLEWLAHIWWDDEKYYNPALKSRLTISKDTSKNQVFLRIANVDTADTATYYCARIQNYGSNYWYFDVWGTGTTVTVSS VL: LIVLTQSPAIMSASPGEKVTMTCGATSRISYMFWYQQKPGSSPRVLIYDTSNLASGVPVRFSGSGSGTSYSLTISRVEAEDVATYYCQQWNSYPLTFGAGTKLELK	≥ 30%
antibody 43 (antibody, V domains shown, mouse IgG, kappa light chain; also called clone #43; purified antibody 43) VH: QVALKESGPGILQPSQTLSLTCSFSGFSLSTFGMGVGWIRQSSGKGLEWLANIWWDDDKYYNPALKSRLTISKDASKNQAFLKIANVDTADTATYYCARIGNYGSNYWYFDVWGTGTTVTVSS VL: QIVLTQSPAIMSASPGERVTMTCSANSRISYMYWYQQKPGSSPRLLIYDTSNLASGVPVRFSGSGSGTSYSLTISRMEAEDAATYNCQQWSSYPLTFGAGTKLELK	≥ 30%
antibody 44 (antibody, V domains shown, mouse IgG, kappa light chain; also called clone #44; purified antibody 44) VH: QVTLKESGPGILQPSQTLSLTCSFSGFSLSTFGMGVGWIRQPSEKGLEWLAHIWWDDDKYYNPALKSRLTISKDTSKNQIFLKITNVDTAETATYYCSRIGNYGSNYWYFDVWGTGTTVTVSS VL: QIVLTQSPAVMSASPGEKVTMTCTASSSVYYMYWYQQTPGSSPRLLIYDTSNLASGVPVRFSGSGSGTSYSLTISRMEAEDAATYYCQQWNTYPLTFGAGTKLELK	≥ 30%
antibody 22 (antibody, V domains shown, mouse IgG, kappa light chain; also called clone #22; purified antibody 22) VH: QVTLKESGPGILQPSQTLSLTCSFSGFSLSTFGMGVGWIRQPSGKGLEWLAHIWWDDEKYYNSALKSRLTISKATSKNQVFLKIANVDTADTATYYCARISNYGSNYWYFNVWGTGTTVTVSS VL: QVVLTQSPALMSASPGEKVTMTCSAGSSVSYMYWYQQKPGSSPRVLIYDTSNLASGVPARFTGSGSGTSYSLTISRMEAEDAATYYCQQWNSYPLTFGAGTKLELK	≥ 30%
antibody 3 (antibody, V domains shown, mouse IgG, kappa light chain; also called clone #3; purified antibody 3) VH: QVTLKESGPGILQPSQTLSLTCSFSGFSLTTFAMGIGWVRQPSGKGLEWLAHIWWDGEKYNNPVLKSRLTISKDTSKNQVFLRIANVDTPDTATYYCARISSIYYIIDNWGQGTSVTVSS VL: DIVLTQSPATLSVTPGHSVSLSCRASQSISNNLHWYQKKSHESPRLLIKYVSQSISGIPSRFSGSGSGTDFTLSINSVETEDFGMYFCQQSYNWPLTFGAGTKLELK	≥ 60%
antibody 34 (antibody, V domains shown, mouse IgG, kappa light chain; also called clone #34; purified antibody 34) VH: QVTLKESGPGILQPSQTLSLTCSFSGFSLSTFSLGVGWIRQSSGKGLEWLAHIWWDDEKYYNPALKSRLTISKDTSKNQVFLKIANVDAADTATYYCARAYYSKSYYALDYWGQGTSVTVSS VL: DIQMTQSPSSLSASLGERVSLTCRASQEISGYLSWLQQKPDGTIKRLIYAASTLDSGVPKRFSGSRSGSDYSLAISSLESEDFADYYCLQYANFPFTFGSGTKLEIK	≥ 60%

— patent publication US20240287172A1 (SCIRHOM, published 2024)
